B1: AURKB promoter site (dsDNA)
DNA 1: CCTCGGCTTCCCAAAATGCTGGGAT
DNA 2: ATCCCAGCATTTTGGGAAGCCGAGG
B2: CDC2L6 promoter site 1 (dsDNA)
DNA 1: AATACAGCTCCCAGGTTACCTCGGG
DNA 2: CCCGAGGTAACCTGGGAGCTGTATT
B3: PFS2 promoter site (dsDNA)
DNA 1: TCTCGACTTCCCAAAGTGCTGGGAT
DNA 2: ATCCCAGCACTTTGGGAAGTCGAGA
B4: RFC4 promoter site (dsDNA)
DNA 1: CCAGCCTAGCCCACTGTGCATGAAG
DNA 2: CTTCATGCACAGTGGGCTAGGCTGG
B5: WEE1 promoter site (dsDNA)
DNA 1: TTAATCTGTCCCTTAATGCACTTAC
DNA 2: GTAAGTGCATTAAGGGACAGATTAA
B6: CDCA3 promoter site (dsDNA)
DNA 1: GACGTAGTTCCCATAGGCCCTCCAC
DNA 2: GTGGAGGGCCTATGGGAACTACGTC
B7: CDCA8 promoter site 1 (dsDNA)
DNA 1: ACTACTACTCCCGGCAGGCCTTGTG
DNA 2: CACAAGGCCTGCCGGGAGTAGTAGT
B8: CDCA8 promoter site 2 (dsDNA)
DNA 1: CCCGCCCTCCCCACCAACCCACCCG
DNA 2: CGGGTGGGTTGGTGGGGAGGGCGGG
B9: MCM2 promoter site (dsDNA)
DNA 1: CCTCGGCTTCCCAAAGTGCTGGGAT
DNA 2: ATCCCAGCACTTTGGGAAGCCGAGG
B10: PLK1 promoter site 1 (dsDNA)
DNA 1: CAGGGCGCTCCCATGGTGCCGCGCG
DNA 2: CGCGCGGCACCATGGGAGCGCCCTG
B11: SPBC25 promoter site (dsDNA)
DNA 1: ACTACGAATCCCAGAATGCCCTGTT
DNA 2: AACAGGGCATTCTGGGATTCGTAGT
B12: ZNF367 (CDC14B) promoter site (dsDNA)
DNA 1: CGGGTCCTTCCCACCTCGCCATTGG
DNA 2: CCAATGGCGAGGTGGGAAGGACCCG
B13: CDC2L6 promoter site 2 (dsDNA)
DNA 1: ACTTCATTTCCCAGGAGCCTCCGCG
DNA 2: CGCGGAGGCTCCTGGGAAATGAAGT
B14: MCM3 promoter site (dsDNA)
DNA 1: ACTCCCAGAACGCAATGCC
DNA 2: GGCATTGCGTTCTGGGAGT
B15: MCM4 promoter site 1 (dsDNA)
DNA 1: GTACCCACCCAGCACCGCG
DNA 2: CGCGGTGCTGGGTGGGTAC
B16: MCM4 promoter site 2 (dsDNA)
DNA 1: TTTCCCGGGGACCCCTGCG
DNA 2: CGCAGGGGTCCCCGGGAAA
B17: MCM5 promoter site (dsDNA)
DNA 1: GTGCCCATTTTGCATTGGG
DNA 2: CCCAATGCAAAATGGGCAC
B18: CDT1 promoter site 2 (dsDNA)
DNA 1: CCTCCCCCCGTGCTCTGCC
DNA 2: GGCAGAGCACGGGGGGAGG
B19: CDCA4 promoter site (dsDNA)
DNA 1: GCTCCCAGGTCTCCGCGCG
DNA 2: CGCGCGGAGACCTGGGAGC
B20: CDKN2C promoter site (dsDNA)
DNA 1: ATCCCCAAAATCCAAGCCA
DNA 2: TGGCTTGGATTTTGGGGAT
B21: CCNE2 promoter site (dsDNA)
DNA 1: CTTCCCACCCGGCCAGGTC
DNA 2: GACCTGGCCGGGTGGGAAG
B22: CCNF promoter site (dsDNA)
DNA 1: ACCCCCAGCTTGCACGGCC
DNA 2: GGCCGTGCAAGCTGGGGGT
B23: BUB1 promoter site (dsDNA)
DNA 1: TCTCCCCACCTGCCTCCCG
DNA 2: CGGGAGGCAGGTGGGGAGA
B24: CDK2 promoter site (dsDNA)
DNA 1: CATTGCTTTCCCATCCTGCTACTCA
DNA 2: TGAGTAGCAGGATGGGAAAGCAATG
B25: BIRC5 (survivin) promoter site (dsDNA)
DNA 1: GCCCCCACCCTCCACTGGG
DNA 2: CCCAGTGGAGGGTGGGGGC
B26: ESPL1 promoter site 1 (dsDNA)
DNA 1: TTACCCGCCGCGCTGCGCG
DNA 2: CGCGCAGCGCGGCGGGTAA
B27: ESPL1 promoter site 2 (dsDNA)
DNA 1: ACTCCCAGCGTGCCGCGCG
DNA 2: CGCGCGGCACGCTGGGAGT
B28: PLK1 promoter site 2 (dsDNA)
DNA 1: GCTCCCATGGTGCCGCGCG
DNA 2: CGCGCGGCACCATGGGAGC
B29: UHRF1 promoter site (dsDNA)
DNA 1: ACTCCCAGGATGCCCTTCC
DNA 2: GGAAGGGCATCCTGGGAGT
B30: RFC2 promoter site (dsDNA)
DNA 1: GGTGGAATTCCCATCTTGCAGCCGA
DNA 2: TCGGCTGCAAGATGGGAATTCCACC
B31: CCNA2 promoter site (dsDNA)
DNA 1: CAGGCACTGCCCAGCGTGGCGAGCC
DNA 2: GGCTCGCCACGCTGGGCAGTGCCTG
B32: CDC6 promoter site (dsDNA)
DNA 1: ACTACGCCTCCCAGCGTGCTTTGCG
DNA 2: CGCAAAGCACGCTGGGAGGCGTAGT
B33: CDCA5 promoter site (dsDNA)
DNA 1: TGCGCCTCTCCCTTCAGCCCCGGCC
DNA 2: GGCCGGGGCTGAAGGGAGAGGCGCA
B34: CDT1 promoter site 1 (dsDNA)
DNA 1: CCCTTCCCTCCCCCCGTGCTCTGCC
DNA 2: GGCAGAGCACGGGGGGAGGGAAGGG
B35: GTSE1 promoter site (dsDNA)
DNA 1: ACTACAATACCCAGGACGCACCCAG
DNA 2: CTGGGTGCGTCCTGGGTATTGTAGT

Key:
ZNF143 [1] = biological target: T1, ZNF143 (UniProt P52747 SEQ:1-638); experiment: EMSA; also ChIP; binding retained without 5'-terminal 6 bases
T1 sequence: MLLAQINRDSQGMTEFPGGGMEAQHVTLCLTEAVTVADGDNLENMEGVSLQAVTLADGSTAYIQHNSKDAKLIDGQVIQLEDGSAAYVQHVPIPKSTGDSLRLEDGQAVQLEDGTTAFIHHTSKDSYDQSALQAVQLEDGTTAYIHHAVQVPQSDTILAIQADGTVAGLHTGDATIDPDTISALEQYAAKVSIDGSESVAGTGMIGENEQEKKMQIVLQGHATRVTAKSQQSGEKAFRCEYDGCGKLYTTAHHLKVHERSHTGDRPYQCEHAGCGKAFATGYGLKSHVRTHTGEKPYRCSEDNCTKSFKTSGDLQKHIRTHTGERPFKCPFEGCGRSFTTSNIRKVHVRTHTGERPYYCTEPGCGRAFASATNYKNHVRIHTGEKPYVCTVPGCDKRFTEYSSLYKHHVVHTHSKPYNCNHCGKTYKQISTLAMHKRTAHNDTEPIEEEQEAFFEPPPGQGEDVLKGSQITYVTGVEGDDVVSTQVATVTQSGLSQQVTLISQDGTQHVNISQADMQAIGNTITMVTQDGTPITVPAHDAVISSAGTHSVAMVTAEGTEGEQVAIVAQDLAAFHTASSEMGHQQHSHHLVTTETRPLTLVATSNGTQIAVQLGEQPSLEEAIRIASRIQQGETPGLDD

ZNF143 [2] = biological target: T1, ZNF143; experiment: EMSA; also ChIP

Binder	binding result (ZNF143 [1])	binding result (ZNF143 [2])
B1	binds	–
B2	binds	–
B3	binds	–
B4	binds	–
B5	binds	–
B6	binds	–
B7	binds	–
B8	binds	–
B9	binds	–
B10	binds	–
B11	binds	–
B12	binds	–
B13	binds	–
B14	–	binds
B15	–	binds
B16	–	binds
B17	–	binds
B18	–	binds

Binder	binding result (ZNF143 [1])	binding result (ZNF143 [2])
B19	–	binds
B20	–	binds
B21	–	binds
B22	–	binds
B23	–	binds
B24	binds	–
B25	–	binds
B26	–	binds
B27	–	binds
B28	–	binds
B29	–	binds
B30	binds	–
B31	binds	–
B32	binds	–
B33	binds	–
B34	binds	–
B35	binds	–
